Experimental data published in patent US20240287172A1 (SCIRHOM, published 2024).

What was measured:
Experiment in all cases: FACS on MEF-DKO cells
[1] = molecular target: T1, hiR2-FL-M534-T7 (deletion of M534) (human, UniProt Q6PJF5 1-856)
T1 construct: single amino acid deletion
T1 sequence: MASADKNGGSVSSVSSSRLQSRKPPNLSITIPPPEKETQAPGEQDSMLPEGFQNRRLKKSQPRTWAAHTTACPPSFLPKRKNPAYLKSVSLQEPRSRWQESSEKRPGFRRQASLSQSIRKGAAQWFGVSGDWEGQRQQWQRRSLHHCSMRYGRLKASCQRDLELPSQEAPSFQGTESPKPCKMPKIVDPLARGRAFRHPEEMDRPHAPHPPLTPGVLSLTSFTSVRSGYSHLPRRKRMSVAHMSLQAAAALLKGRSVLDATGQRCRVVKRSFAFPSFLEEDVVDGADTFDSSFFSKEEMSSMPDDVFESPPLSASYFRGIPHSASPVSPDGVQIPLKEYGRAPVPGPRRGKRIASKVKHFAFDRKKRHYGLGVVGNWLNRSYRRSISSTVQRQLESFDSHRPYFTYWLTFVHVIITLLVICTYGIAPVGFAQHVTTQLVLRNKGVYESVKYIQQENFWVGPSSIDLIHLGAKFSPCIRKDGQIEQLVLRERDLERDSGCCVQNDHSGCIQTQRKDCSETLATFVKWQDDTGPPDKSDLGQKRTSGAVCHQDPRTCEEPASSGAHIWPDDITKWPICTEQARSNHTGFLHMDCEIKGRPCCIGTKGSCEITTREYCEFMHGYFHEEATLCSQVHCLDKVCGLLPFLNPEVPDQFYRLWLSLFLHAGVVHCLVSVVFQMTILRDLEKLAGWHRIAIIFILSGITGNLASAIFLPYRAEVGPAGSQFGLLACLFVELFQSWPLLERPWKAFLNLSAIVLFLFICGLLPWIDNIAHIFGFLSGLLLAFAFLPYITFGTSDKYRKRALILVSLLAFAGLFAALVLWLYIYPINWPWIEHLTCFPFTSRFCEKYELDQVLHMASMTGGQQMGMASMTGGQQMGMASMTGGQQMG

[2] = molecular target: T2, hiR2-FL-D535-T7 (deletion of D535) (human, UniProt Q6PJF5 1-856)
T2 construct: single amino acid deletion
T2 sequence: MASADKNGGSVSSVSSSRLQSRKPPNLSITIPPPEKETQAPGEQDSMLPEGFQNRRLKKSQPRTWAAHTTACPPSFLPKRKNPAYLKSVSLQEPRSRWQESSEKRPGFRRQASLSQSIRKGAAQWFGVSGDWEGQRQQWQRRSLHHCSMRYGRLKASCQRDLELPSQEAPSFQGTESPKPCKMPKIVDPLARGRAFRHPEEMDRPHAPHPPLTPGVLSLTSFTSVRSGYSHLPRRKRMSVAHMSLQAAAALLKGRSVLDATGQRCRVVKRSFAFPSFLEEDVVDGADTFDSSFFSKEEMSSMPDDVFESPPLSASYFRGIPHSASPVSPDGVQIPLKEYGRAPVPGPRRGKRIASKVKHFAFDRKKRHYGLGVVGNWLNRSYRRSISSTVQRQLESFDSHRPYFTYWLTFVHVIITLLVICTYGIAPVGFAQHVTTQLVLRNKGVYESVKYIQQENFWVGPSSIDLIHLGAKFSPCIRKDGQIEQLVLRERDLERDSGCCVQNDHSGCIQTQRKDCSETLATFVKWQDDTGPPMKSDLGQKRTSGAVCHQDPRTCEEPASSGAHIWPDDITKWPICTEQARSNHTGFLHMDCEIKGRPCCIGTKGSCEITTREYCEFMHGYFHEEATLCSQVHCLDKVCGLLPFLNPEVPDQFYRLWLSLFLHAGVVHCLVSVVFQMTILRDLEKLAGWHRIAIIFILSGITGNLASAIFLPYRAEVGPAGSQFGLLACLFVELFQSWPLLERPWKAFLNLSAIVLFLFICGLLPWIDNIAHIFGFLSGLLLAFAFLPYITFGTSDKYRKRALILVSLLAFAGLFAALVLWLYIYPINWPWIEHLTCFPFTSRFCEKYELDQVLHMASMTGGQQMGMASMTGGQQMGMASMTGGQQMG

[3] = molecular target: T3, hiR2-FL-K536-T7 (deletion of K536) (human, UniProt Q6PJF5 1-856)
T3 construct: single amino acid deletion
T3 sequence: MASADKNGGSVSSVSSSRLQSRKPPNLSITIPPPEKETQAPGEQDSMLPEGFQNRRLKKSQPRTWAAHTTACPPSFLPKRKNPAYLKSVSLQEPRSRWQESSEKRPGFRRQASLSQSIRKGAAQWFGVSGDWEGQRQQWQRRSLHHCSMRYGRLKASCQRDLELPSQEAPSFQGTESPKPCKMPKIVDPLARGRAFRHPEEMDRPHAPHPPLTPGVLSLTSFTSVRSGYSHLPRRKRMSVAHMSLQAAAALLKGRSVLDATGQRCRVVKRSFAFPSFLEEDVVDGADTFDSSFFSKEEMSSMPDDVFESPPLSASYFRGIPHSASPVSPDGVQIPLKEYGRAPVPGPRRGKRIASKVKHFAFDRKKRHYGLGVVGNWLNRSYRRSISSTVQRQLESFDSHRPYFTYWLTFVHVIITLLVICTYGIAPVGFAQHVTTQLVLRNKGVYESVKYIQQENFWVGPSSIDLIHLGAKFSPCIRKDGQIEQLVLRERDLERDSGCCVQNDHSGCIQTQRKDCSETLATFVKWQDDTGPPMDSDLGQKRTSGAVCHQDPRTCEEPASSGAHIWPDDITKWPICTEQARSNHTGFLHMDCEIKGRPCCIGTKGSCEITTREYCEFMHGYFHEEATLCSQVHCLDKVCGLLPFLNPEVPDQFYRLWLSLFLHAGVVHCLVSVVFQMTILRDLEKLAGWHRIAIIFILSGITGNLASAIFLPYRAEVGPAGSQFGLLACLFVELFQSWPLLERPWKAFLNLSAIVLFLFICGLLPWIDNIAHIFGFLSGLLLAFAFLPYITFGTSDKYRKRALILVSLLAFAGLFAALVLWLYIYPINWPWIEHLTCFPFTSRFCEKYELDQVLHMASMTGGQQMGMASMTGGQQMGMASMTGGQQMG

Measured: binding result

B1: antibody 5 (antibody, V domains shown)
VH: QVTLKESGPGILQPSQTLSLTCSFSGFSLSTFGMGVGWIRQPSGKGLEWLAHIWWDDEKYYNSALKSRLTISKATSKNQAFLKIANVDTADTATYYCARISNYGSNYWYFNVWGTGTTVTVSS
VL: QVVLTQSPALMSASPGEKVTMTCSAGSSVSCMYWYQQKPGSSPRVLIYDTSNLASGVPARFTGSGSGTSYSLTISRMEAEDAASYYCQQWNSYPLTFGAGTKLELK
notes: mouse IgG, kappa light chain; also called clone #5; purified antibody 5
no binding (tested: 3 µg/ml): all assays above

B2: antibody 43 (antibody, V domains shown)
VH: QVALKESGPGILQPSQTLSLTCSFSGFSLSTFGMGVGWIRQSSGKGLEWLANIWWDDDKYYNPALKSRLTISKDASKNQAFLKIANVDTADTATYYCARIGNYGSNYWYFDVWGTGTTVTVSS
VL: QIVLTQSPAIMSASPGERVTMTCSANSRISYMYWYQQKPGSSPRLLIYDTSNLASGVPVRFSGSGSGTSYSLTISRMEAEDAATYNCQQWSSYPLTFGAGTKLELK
notes: mouse IgG, kappa light chain; also called clone #43; purified antibody 43
no binding (tested: 3 µg/ml): all assays above

B3: antibody 44 (antibody, V domains shown)
VH: QVTLKESGPGILQPSQTLSLTCSFSGFSLSTFGMGVGWIRQPSEKGLEWLAHIWWDDDKYYNPALKSRLTISKDTSKNQIFLKITNVDTAETATYYCSRIGNYGSNYWYFDVWGTGTTVTVSS
VL: QIVLTQSPAVMSASPGEKVTMTCTASSSVYYMYWYQQTPGSSPRLLIYDTSNLASGVPVRFSGSGSGTSYSLTISRMEAEDAATYYCQQWNTYPLTFGAGTKLELK
notes: mouse IgG, kappa light chain; also called clone #44; purified antibody 44
no binding (tested: 3 µg/ml): all assays above

B4: antibody 42 (antibody, V domains shown)
VH: QVTLKESGPGILQPSQTLSLTCSLSGFSLSTFGRGVGWIRQPSGKGLEWLAHIWWDDEKYYNPALKSRLTISKDTSKNQVFLRIANVDTADTATYYCARIQNYGSNYWYFDVWGTGTTVTVSS
VL: LIVLTQSPAIMSASPGEKVTMTCGATSRISYMFWYQQKPGSSPRVLIYDTSNLASGVPVRFSGSGSGTSYSLTISRVEAEDVATYYCQQWNSYPLTFGAGTKLELK
notes: mouse IgG, kappa light chain; also called clone #42; purified antibody 42
no binding (tested: 3 µg/ml): all assays above

B5: antibody 22 (antibody, V domains shown)
VH: QVTLKESGPGILQPSQTLSLTCSFSGFSLSTFGMGVGWIRQPSGKGLEWLAHIWWDDEKYYNSALKSRLTISKATSKNQVFLKIANVDTADTATYYCARISNYGSNYWYFNVWGTGTTVTVSS
VL: QVVLTQSPALMSASPGEKVTMTCSAGSSVSYMYWYQQKPGSSPRVLIYDTSNLASGVPARFTGSGSGTSYSLTISRMEAEDAATYYCQQWNSYPLTFGAGTKLELK
notes: mouse IgG, kappa light chain; also called clone #22; purified antibody 22
no binding (tested: 3 µg/ml): all assays above

B6: antibody 34 (antibody, V domains shown)
VH: QVTLKESGPGILQPSQTLSLTCSFSGFSLSTFSLGVGWIRQSSGKGLEWLAHIWWDDEKYYNPALKSRLTISKDTSKNQVFLKIANVDAADTATYYCARAYYSKSYYALDYWGQGTSVTVSS
VL: DIQMTQSPSSLSASLGERVSLTCRASQEISGYLSWLQQKPDGTIKRLIYAASTLDSGVPKRFSGSRSGSDYSLAISSLESEDFADYYCLQYANFPFTFGSGTKLEIK
notes: mouse IgG, kappa light chain; also called clone #34; purified antibody 34
no binding (tested: 3 µg/ml): all assays above

B7: antibody 16 (antibody, V domains shown)
VH: QVTLKESGPGILQPSQTLSLTCSFSGFSLSTFALGVGWIRQPSGRGLEWLAHIWWDDDKYYNPALKSRLTISKDTSKNHVFLKIANVDTADTATYYCARITTYYYGMDYWGQGTSVTVSS
VL: DIVLSQSPATLSVTPGDSVSLFCRASQSIGNHLHWYQQESHASPRLLIKYASQSISGIPSRFSGSGSGTDFTLSINSVETEDFGMYFCQQSYNWPLTFGAGTKLELK
notes: mouse IgG, kappa light chain; also called clone #16; purified antibody 16
no binding (tested: 3 µg/ml): all assays above

B8: antibody 3 (antibody, V domains shown)
VH: QVTLKESGPGILQPSQTLSLTCSFSGFSLTTFAMGIGWVRQPSGKGLEWLAHIWWDGEKYNNPVLKSRLTISKDTSKNQVFLRIANVDTPDTATYYCARISSIYYIIDNWGQGTSVTVSS
VL: DIVLTQSPATLSVTPGHSVSLSCRASQSISNNLHWYQKKSHESPRLLIKYVSQSISGIPSRFSGSGSGTDFTLSINSVETEDFGMYFCQQSYNWPLTFGAGTKLELK
notes: mouse IgG, kappa light chain; also called clone #3; purified antibody 3
no binding (tested: 3 µg/ml): all assays above
